According to publication PMC4072508, “Genome-Wide Prediction and Validation of Peptides That Bind Human Prosurvival Bcl-2 Proteins” (PLoS Computational Biology, 2014):

How the values were obtained:
Bcl-xL, Q07817 = test: peptide SPOT array, c-Myc-tagged receptor at 1 uM or 100 nM, anti-c-Myc-Cy3
Mcl-1, Q07820 = target: T1, Mcl-1, Q07820; test: as above
T1 chain: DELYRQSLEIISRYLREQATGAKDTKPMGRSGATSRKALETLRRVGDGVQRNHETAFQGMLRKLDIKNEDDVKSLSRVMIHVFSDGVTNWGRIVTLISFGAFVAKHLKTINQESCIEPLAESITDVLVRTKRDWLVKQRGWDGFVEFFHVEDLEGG

Bcl-xL, Q07817, sequence (Q07817 1-209): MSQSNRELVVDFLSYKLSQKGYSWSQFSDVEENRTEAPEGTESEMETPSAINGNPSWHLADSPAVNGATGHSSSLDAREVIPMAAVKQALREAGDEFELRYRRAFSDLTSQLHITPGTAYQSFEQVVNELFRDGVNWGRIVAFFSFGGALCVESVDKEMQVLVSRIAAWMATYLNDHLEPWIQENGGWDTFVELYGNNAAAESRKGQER

| Binder | SPOT signal as a fraction of Bim BH3's signal on the same receptor and array (Bcl-xL, Q07817) | SPOT signal as a fraction of Bim BH3's signal on the same receptor and array (Mcl-1, Q07820) |
| --- | --- | --- |
| CGDLASLSIDIWTLLEEVDGRRLVVA [BIRC6] | 0.03 | 0.03 |
| RIEMWISILELNELGEYAAVELHQAK [KIF13A] | 0.02 | 0.02 |
| ANLEISYAKGLQKLASKLSKALQNTR [NOSTRIN] |  | 0.22 |
| ALKKADVGFADGIAGTDVAKEASDII [ATP2B1] | 0.01 | 0.01 |
| TLLTPGYSVIIEKLAEGLDIQLKSPV [KDM1B] |  | 0.02 |
| AKTSQTVATFLDELAQKLKPLGEQER [THOP1] |  | 0.02 |
| QQMHHNAATAMAQRADMLRGLSPRES [NCOR2] | 0.06 | 0.01 |
| GVMTQEVGQLLQDMGDDVYQQYRSLT [HUWE1] |  | 0.45 |
| EAGNMAAVGRLQAVSRRLFAELENER [KIAA1751] |  | 0.02 |
| HGTSSRIGSSDKSVGEVMAIGRTFEE | 0.02 | 0.02 |
| NKTMTQLSSTDARCAKDILGFAVMFF [PKD2L1] | 0.03 | 0.02 |
| RFVVIDNCIALKKVASRLKKKRKKKN [TTC3] |  | 0.17 |
| SPYVFNGGTILAIALEDFAIVASDTR [PSMB1] | 0.02 | 0.01 |
| CANHPSAVNVLTEHSEELGEFMETKG [ARHGEF7] |  | 0.01 |
| RRTSINVVRHLGIVGECNIQFALHPT | 0.03 | 0.02 |
| CALLGSTGERICLAGDSAGGNLCFTV | 0.01 | 0.01 |
| GLTWDPVGKYDASQADDRSLKVWRTL [HIRA] | 0.17 | 0.23 |
| SAGVPVRGVELQAAAERFARCFGRTD | 0.12 | 0.04 |
| RRTSINVVRHDGIVGECNIQFALHPT | 0.03 | 0.03 |
| QVQNIKLAGSLQHVAEKLCRELYNKA [CLEC1A] |  | 0.11 |
| SEDHFRAAYLLKDVAKEAYQDVAFTQ [BNC1] |  | 0.02 |
| DKATENCVCILHNLSYQLEAELPEKY [PKP2] |  | 0.01 |
| IFNGSNWIMLIYKGGDEYDNHCGKEQ [M6PR] |  | 0.02 |

| Binder | SPOT signal as a fraction of Bim BH3's signal on the same receptor and array (Bcl-xL, Q07817) | SPOT signal as a fraction of Bim BH3's signal on the same receptor and array (Mcl-1, Q07820) |
| --- | --- | --- |
| PSLSKELTSSDAGVGDVSFDSDSQFP [CRTC1] | 0.01 | 0.01 |
| TESGSFVANLLKDLGLEIGELAVRGA [PCDHB2] |  | 0.02 |
| RVSWNITGTVLASSLDDGCVRLWKAN [SEH1L] | 0.18 | 0.08 |
| KCCYGYCIDLLERLAEDTPFDFELYL [GRIN3B] |  | 0.02 |
| SAGVPVRGVEDQAAAERFARCFGRTD | 0.02 | 0.02 |
| NKRHRPIGIGVQGLADAFILMRYPFE [RRM1] | 0.04 | 0.04 |
| REAAVSASDILQESAIHSPGTVEKEA [C12orf43] |  | 0.01 |
| QATHDQAVQALKRAGKEVLLEVKFIR [SNTB2] |  | 0.02 |
| CALLGSTGERICLALDSAGGNLCFTV | 0.01 | 0.01 |
| LRCEMASTGEVACFGEGIHTAFLKAM | 0.03 | 0.03 |
| AALFLHAGCQLLTAGEDGKVQVWSGS [TEP1] | 0.02 | 0.02 |
| HPRKESQVRQLAWVLDGVWVSIRLDS [SPAG9] | 0.02 | 0.02 |
| LNAVNYISTVLADWADNVFFLQLQQA [RINT1] | 0.02 | 0.03 |
| CVSDQELGLLIKEVADALGGGADPET [KCNK4] |  | 0.01 |
| SSAPAAAAGLLREAGSGGRERADWRR [MAP3K1] |  | 0.07 |
| SLIEYKAAVTLQRAALKFLAKYRKKK [IQCB1] |  | 0.24 |
| HPRRESQVRQDAWIGDGVWVSIRLDS [MAPK8IP3] | 0.02 | 0.02 |
| HQAEVQIARKLQCIADQFHRLHVQQH [BMF] |  | 0.48 |
| IVGGCVVGIAMARFLDFIRGMLKLIL [DIRC2] | 0.29 | 0.18 |
| RLAHEHHCLRDKILGDCYYCVSGLPE [ADCY8] | 0.02 | 0.01 |
| ELQAPATVQSDGLLGDRLCVGAAGGF [CDC42BPG] | 0.01 | 0.01 |
| RRTSINVVRHLGIVLECNIQFALHPT | 0.14 | 0.1 |
